Measured values as given in PMC3675627, “Structures of Arenaviral Nucleoproteins with Triphosphate dsRNA Reveal a Unique Mechanism of Immune Suppression*”.

Legend:
[1] = target: T1, LASV NP-C (catalytically active exoribonuclease domain) (Lassa virus, UniProt P13699 364-569); assay: […], pH 5.5, room temperature; […]; settings: protein: recombinant; blunt; self-complementary, 2 copies of one strand
[2] = target: T1, LASV NP-C (catalytically active …); assay: X-ray crystallography, 1.68 A; […], pH 5.5, room temperature; […]; settings: protein: recombinant; 5' overhang 4 nt on complementary strand

T1 sequence (P13699 364-569): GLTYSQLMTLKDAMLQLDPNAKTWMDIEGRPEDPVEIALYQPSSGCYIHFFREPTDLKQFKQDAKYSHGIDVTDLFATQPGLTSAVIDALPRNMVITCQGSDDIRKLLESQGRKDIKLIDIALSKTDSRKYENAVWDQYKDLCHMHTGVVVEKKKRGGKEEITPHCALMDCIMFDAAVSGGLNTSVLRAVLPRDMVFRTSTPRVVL

| Binder | binding result [1] | binding result [2] |
| --- | --- | --- |
| 8-bp 5'-ppp dsRNA (input) (dsRNA, 5'-triphosphate) RNA 1: GGGCGCCC RNA 2: GGGCGCCC | binds | – |
| cleaved intermediate of the 5'-ppp dsRNA (4-nt cleaving strand, 8-nt complementary strand) (dsRNA, 5'-triphosphate) RNA 1: GGGC RNA 2: GGGCGCCC | – | binds |
